Experimental data taken from patent publication US20120283136A1, “COMPOSITIONS AND METHODS FOR THE RAPID BIOSYNTHESIS AND IN VIVO SCREENING OF BIOLOGICALLY RELEVANT PEPTIDES” (THE UNIVERSITY OF SOUTHERN CALIFORNIA, priority 2009, published 2012).
“Also recorded” adds a separate entry of the source. Where no end group is shown, it is not given here.

Tests used:
[1] = biological target: LF protease (Bacillus anthracis, UniProt P15917); assay type: biochemical, B. anthracis strain Sterne
[2] = Saether et al. (1995); cited from earlier work
[3] = biological target: trypsin; conditions: read-out: Ki (affinity for trypsin); cited from earlier work
[4] = biological target: trypsin (Sus scrofa, UniProt P00761); test: Competing trypsin-binding experiments (sequential extraction with limiting trypsin-sepharose); conditions: in vitro and in vivo cyclized libraries, trypsin-sepharose under competing conditions (about 20% of beads required for stoichiometric binding), MCoTI-I wt as internal reference
Chain of trypsin (Sus scrofa, UniProt P00761) (P00761 9-231): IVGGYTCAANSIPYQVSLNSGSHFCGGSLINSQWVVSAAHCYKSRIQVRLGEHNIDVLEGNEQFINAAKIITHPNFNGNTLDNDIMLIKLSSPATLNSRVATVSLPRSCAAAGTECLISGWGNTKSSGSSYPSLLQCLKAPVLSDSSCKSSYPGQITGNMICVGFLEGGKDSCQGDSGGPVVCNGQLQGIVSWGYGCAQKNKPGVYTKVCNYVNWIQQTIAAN

Q: With “H-RRKKVYPYPMEGTIA-NH2 [consensus LF substrate peptide made by Fmoc solid-phase synthesis]” as the substance, how does the “time for cleavage of the P1-P1′ peptide bond by LF” value [1] read?
A: less than 15 minutes

Q: With “Kalata B1 (cyclo(GLPVCGETCVGGTCNTPGCTCSWPVCTRN); ends not checked; also: three disulfide bonds (cystine knot), pairing not given here; UniProt P56254 89-117, looked up) [first cyclotide to be discovered, from Oldenlandia affinis]” as the substance, how does the oral bioavailability [2] read?
A: orally bioavailable

Q: For “MCoTI-II (cyclo(SGSDGGVCPKILKKCRRDSDCPGACICRGNGYCG); ends not checked; also: three disulfide bonds (cystine knot), pairing not given here; UniProt P82409 1-34, looked up)”, which Ki [3] is on record?
A: ~2 pM

Q: With “Q7G (CGSGSDGGVCPKILGRCRRDSDCPGACICRGNGY; not fully specified (bridges); ends and bridges not checked)” as the substance, how does the “relative affinity for trypsin versus MCoTI-I wt (elution profile)” value [4] read?
A: lower affinity; also recorded: weaker affinity
